This note sets out measurements from patent US12312397B2, “Anti-O2 antibodies and uses thereof” (priority 2016, dated 2025).

Experiment [1] deals with antibiotic resistant Klebsiella pneumoniae strains. The class given is in vivo. On the procedure: (§1) C57/BL6 mice were obtained from Jackson Laboratories and maintained in a special pathogen-free facility. All animal experiments were conducted in accordance with Institutional Animal Care and Use Committee (IACUC) protocol and guidance. K. pneumoniae strains were grown on agar plates overnight and diluted in saline at proper concentration. The inoculum titer was determined by plating a serial dilution of bacteria onto agar plates prior to and post challenge. In acute pneumonia models, C57/BL6 mice were inoculated with 1e4 to 2e8 colony-forming units (CFU) of K. pneumoniae clinical isolates in 50 μl saline intranasally. Anti-K pneumoniae monoclonal antibodies (mAbs) and human IgG1 control antibodies were given 1-24 hour post bacterial challenge (therapeutic dosing). Mouse survival was monitored daily until up to day 8. Survival data of representative experiments were plotted in Graphpad Prism software.
The lethal pneumonia model as described in Example 9 was used to assess the activity of anti-O2 LPS antibodies in combination with an antibiotic. Both antibiotic and antibody were administered 1 hour after bacterial infection.
50 mg/kg of meropenem and 2 mg/kg of antibody were administered at 1, 2, 4, 6, and 24 hour after bacterial infection, as described for the antibody and antibiotic combination studies in Examples 9 and 10.

Experiment [2] concerns O1 LPS activation of NF-κB in RAW264.7-lux cells. Briefly: LPS neutralization assay (NF-κB luciferase, RAW264.7-lux), O1 LPS. The class given is cell-based, murine. Conditions: secondary screening. Put shortly:
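Serially diluted mAbs (human IgG1) pre-mixed 1:1 with LPS at 4 °C for 1 hr, then diluted 1:10 onto RAW264.7-lux cells carrying an NF-κB-driven firefly luciferase; 2.5 h at 37 °C. Luminescence read; % inhibition relative to no-antibody and negative-control mAb wells.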

In experiment [3] the test system is O2 LPS. Briefly: ELISA binding to O2 LPS. The conditions noted are these: secondary screening, ELISA. Also noted: species or system Klebsiella pneumoniae. The method, boiled down:
(§2)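 Serial dilutions of monoclonal antibodies bound to LPS-coated plates for 1 h at room temperature, detected with alkaline phosphatase-conjugated anti-human IgG (1 h) and pNPP substrate (30 min). Absorbance read at 405 nm; EC50 values derived from binding curves.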

Experiment [4] deals with O1 LPS. Briefly: ELISA binding to O1 LPS. The conditions noted are these: secondary screening. Also noted: species or system Klebsiella pneumoniae. The method, boiled down:
as §2

For experiment [5], the system named is KPC strain Kp961842_O2. Briefly: Lethal pneumonia model, KPC strain Kp961842_O2. The experiment is classed as in vivo, Klebsiella pneumoniae. Conditions: C57/BL6 mice, 2e8 CFU; mAb 2 mg/kg 1 hour post infection; survival. On the procedure:
as §1
Mice were challenged with 2e8 CFU of Klebsiella pneumoniae Carbanpenemase (KPC) strain Kp961842_O2 or with 3e8 CFU of KPC strain Kp977778_O2, followed by the administration of anti-O2 mAbs. When administered at a concentration of 2 mg/kg 1 hour post bacterial infection, Class III anti-O2 LPS mAbs KPN42, KPN179-IgG1, and KPS44v2017 protected mice from lethal bacterial challenge with the multi-drug resistant KPC strains Kp961842_O2 (FIG. 6, left panel, and FIG. 10) and Kp977778_O2 (FIG. 6B, right panel).

B1: KPN179: Class III anti-O2 antigen human mAb; VH SEQ ID NO: 53, VL SEQ ID NO: 54 (antibody, V domains shown)
VH: EVQVVESGGGLVKPGGSLRLSCAASGFTFNNAWMNWVRQAPGKGLEWVGRIKRKADGETTDYPASVKGRFTVSRDDSKNTIYLQMNSLKTEDTAIYYCTTRIVTTNDYWGQGTLVTVSS
VL: QSALTQPPSVSGSPGQSVTISCTGTSSDVGYYDYVSWYQQHHPGKAPKHMIYDVNKRPSGVPDRFSGSKSGNTASLTISGLQAEDEADYYCCSYAGGDTFVFGTGTKVTVL
modifications: Description of Artificial Sequence: SyntheticKPN179 VH polypeptide; Description of Artificial Sequence: SyntheticKPN179 VL polypeptide
Take B1: the “time post infection up to which combination with meropenem protects better than control mAb and meropenem” value in experiment [1] (50 mg/kg meropenem + 2 mg/kg antibody given 1, 2, 4, 6, 24 hour after infection, mice) is “up to 4 hours”. Also, in experiment [1] (meropenem 50 mpk + antibody 0.2 mpk, both 1 hour after infection, mice), the “protection of combination with meropenem compared to antibody or antibiotic monotherapy” value is on record as “significantly improved protection”. For the same molecule, the “synergy with meropenem in lethal pneumonia model” value in experiment [1] (sub-therapeutic antibody dose, % survival of mice) is recorded as “strong synergy”. Also, in experiment [2], the “neutralization of LPS-O1” value is on record as “did not show LPS-neutralizing activity”. In addition, the “binding to LPS-O2” value in experiment [3] is on record as “bind”. For the same molecule, in experiment [4], the “binding to LPS-O1” value is given as “bind”. For the same molecule, the “protection from lethal bacterial challenge, Kp961842_O2” value in experiment [5] is “protected”.
